Experimental findings from paper PMC7924733 (Journal of molecular biology, 2021) are described below.

B1: His6-Atg16 L71C (natural protein, S. cerevisiae, UniProt Q03818 1-150, looked up)
chain: MGNFIITERKKAKEERSNPQTDSMDDLLIRRLTDRNDKEAHLNELFQDNSGAIGGNIVSHDDALLNTLAICQKELKSKEQEIRRLKEVIALKNKNTERLNDELISGTIENNVLQQKLSDLKKEHSQLVARWLKKTEKETEAMNSEIDGTK
B2: Atg16 L71C L85C L99C L120C (natural protein, S. cerevisiae, UniProt Q03818 1-150, looked up)
chain: B1 chain with L85C, L99C, L120C
B3: Atg16 L71C L120C (natural protein, S. cerevisiae, UniProt Q03818 1-150, looked up)
chain: B1 chain with L120C

Substitutions are numbered along the chain they refer to. Numbers in names are those of the source.

This series concerns the molecule itself. The experiment in a line: cross-linking.
Consider B1, for which the stoichiometry N (in general, the number of molecules, sites or subunits per partner or assembly) stood at 2. On to B2, for which the “stoichiometry N” value was determined as 2. In the case of B3, the “stoichiometry N” value was found to be 2.
